Results: publication PMC5146981, “MMP-13 is constitutively produced in human chondrocytes and co-endocytosed with ADAMTS-5 and TIMP-3 by the endocytic receptor LRP1” (Matrix Biology, 2016)
Read-outs that look alike come from different tables or passages of the source. Blank lines part the entries; values can stand above or below the molecule they belong to.

Columns and labels:
[1] = target: purified human full-length LRP1 (low-density lipoprotein receptor-related protein 1) (human); assay: ELISA; solid-phase binding; full-length LRP1 (5 nM in TNC) coated on microtiter plates overnight at 4 °C, blocked with 3% BSA; MMPs 0-50 nM for 3 h at room temperature; detected with anti-MMP antibodies and HRP secondary antibody; apparent KD (K_D,app)
[2] = target: purified human full-length LRP1 (low-density lipoprotein receptor-related protein 1); assay: solid-phase binding assay (ELISA) on immobilized LRP1; conditions: point at 50 nM MMP, read off a plot
[3] = target: purified human full-length LRP1 (low-density lipoprotein receptor-related protein 1); assay: competition solid-phase binding assay (ELISA) on immobilized LRP1; conditions: 200 nM proMMP-1(E200A) as competitor of 6 nM proMMP-13(E223A); detection with anti-FLAG M2 antibody; read off a plot
[4] = target: purified human full-length LRP1 (low-density lipoprotein receptor-related protein 1) (human); assay: ELISA; full-length LRP1 coated; proMMP-13(E223A) 0-40 nM in the absence or presence of 50 nM ADAMTS-5, 250 nM ADAMTS-4 or 50 nM TIMP-3 plus 50 μM CT1746; apparent KD (K_D,app)
[5] = target: LRP1 ligand-binding cluster I (human) (UniProt Q07954); assay: ELISA; purified LRP1 fragments (clusters I to IV) coated on microtiter plates; proMMP-13(E223A) or Hpx_(MMP-13) 0-200 nM; detected with anti-MMP-13 181-14G11; extrapolated apparent KD (K_D,app)
[6] = target: LRP1 ligand-binding cluster IV (human) (UniProt Q07954); assay: as above
[7] = target: T1, LRP1 ligand-binding cluster II (human, UniProt Q07954 852-1182); assay: as above
T1 construct: also called soluble LRP1 cluster II
T1 sequence (looked up): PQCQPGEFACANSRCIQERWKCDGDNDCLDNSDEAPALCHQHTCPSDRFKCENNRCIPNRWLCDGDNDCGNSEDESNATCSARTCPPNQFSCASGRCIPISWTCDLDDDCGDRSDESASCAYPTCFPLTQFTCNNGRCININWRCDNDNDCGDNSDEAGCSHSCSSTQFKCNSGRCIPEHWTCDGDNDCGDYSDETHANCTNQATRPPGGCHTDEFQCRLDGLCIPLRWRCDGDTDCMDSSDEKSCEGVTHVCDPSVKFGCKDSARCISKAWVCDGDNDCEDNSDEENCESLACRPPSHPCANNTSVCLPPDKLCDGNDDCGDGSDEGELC

[8] = target: LRP1 ligand-binding cluster III (human, UniProt Q07954 2522-2940); assay: as above
[9] = target: purified human full-length LRP1 (low-density lipoprotein receptor-related protein 1) (human)

Chain of LRP1 ligand-binding cluster III (Q07954 2522-2940): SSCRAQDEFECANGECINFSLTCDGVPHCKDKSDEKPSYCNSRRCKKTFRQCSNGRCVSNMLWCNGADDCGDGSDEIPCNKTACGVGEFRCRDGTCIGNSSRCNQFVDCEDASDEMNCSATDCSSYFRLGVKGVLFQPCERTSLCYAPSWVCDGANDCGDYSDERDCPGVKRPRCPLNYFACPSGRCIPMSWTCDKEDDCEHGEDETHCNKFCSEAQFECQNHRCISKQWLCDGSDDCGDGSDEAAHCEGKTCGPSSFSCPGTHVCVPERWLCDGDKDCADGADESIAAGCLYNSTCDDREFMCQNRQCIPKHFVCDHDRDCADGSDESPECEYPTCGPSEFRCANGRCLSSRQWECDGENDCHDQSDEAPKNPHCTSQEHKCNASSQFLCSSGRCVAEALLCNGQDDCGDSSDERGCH
Chain of LRP1 ligand-binding cluster I (human) (Q07954 20-4544): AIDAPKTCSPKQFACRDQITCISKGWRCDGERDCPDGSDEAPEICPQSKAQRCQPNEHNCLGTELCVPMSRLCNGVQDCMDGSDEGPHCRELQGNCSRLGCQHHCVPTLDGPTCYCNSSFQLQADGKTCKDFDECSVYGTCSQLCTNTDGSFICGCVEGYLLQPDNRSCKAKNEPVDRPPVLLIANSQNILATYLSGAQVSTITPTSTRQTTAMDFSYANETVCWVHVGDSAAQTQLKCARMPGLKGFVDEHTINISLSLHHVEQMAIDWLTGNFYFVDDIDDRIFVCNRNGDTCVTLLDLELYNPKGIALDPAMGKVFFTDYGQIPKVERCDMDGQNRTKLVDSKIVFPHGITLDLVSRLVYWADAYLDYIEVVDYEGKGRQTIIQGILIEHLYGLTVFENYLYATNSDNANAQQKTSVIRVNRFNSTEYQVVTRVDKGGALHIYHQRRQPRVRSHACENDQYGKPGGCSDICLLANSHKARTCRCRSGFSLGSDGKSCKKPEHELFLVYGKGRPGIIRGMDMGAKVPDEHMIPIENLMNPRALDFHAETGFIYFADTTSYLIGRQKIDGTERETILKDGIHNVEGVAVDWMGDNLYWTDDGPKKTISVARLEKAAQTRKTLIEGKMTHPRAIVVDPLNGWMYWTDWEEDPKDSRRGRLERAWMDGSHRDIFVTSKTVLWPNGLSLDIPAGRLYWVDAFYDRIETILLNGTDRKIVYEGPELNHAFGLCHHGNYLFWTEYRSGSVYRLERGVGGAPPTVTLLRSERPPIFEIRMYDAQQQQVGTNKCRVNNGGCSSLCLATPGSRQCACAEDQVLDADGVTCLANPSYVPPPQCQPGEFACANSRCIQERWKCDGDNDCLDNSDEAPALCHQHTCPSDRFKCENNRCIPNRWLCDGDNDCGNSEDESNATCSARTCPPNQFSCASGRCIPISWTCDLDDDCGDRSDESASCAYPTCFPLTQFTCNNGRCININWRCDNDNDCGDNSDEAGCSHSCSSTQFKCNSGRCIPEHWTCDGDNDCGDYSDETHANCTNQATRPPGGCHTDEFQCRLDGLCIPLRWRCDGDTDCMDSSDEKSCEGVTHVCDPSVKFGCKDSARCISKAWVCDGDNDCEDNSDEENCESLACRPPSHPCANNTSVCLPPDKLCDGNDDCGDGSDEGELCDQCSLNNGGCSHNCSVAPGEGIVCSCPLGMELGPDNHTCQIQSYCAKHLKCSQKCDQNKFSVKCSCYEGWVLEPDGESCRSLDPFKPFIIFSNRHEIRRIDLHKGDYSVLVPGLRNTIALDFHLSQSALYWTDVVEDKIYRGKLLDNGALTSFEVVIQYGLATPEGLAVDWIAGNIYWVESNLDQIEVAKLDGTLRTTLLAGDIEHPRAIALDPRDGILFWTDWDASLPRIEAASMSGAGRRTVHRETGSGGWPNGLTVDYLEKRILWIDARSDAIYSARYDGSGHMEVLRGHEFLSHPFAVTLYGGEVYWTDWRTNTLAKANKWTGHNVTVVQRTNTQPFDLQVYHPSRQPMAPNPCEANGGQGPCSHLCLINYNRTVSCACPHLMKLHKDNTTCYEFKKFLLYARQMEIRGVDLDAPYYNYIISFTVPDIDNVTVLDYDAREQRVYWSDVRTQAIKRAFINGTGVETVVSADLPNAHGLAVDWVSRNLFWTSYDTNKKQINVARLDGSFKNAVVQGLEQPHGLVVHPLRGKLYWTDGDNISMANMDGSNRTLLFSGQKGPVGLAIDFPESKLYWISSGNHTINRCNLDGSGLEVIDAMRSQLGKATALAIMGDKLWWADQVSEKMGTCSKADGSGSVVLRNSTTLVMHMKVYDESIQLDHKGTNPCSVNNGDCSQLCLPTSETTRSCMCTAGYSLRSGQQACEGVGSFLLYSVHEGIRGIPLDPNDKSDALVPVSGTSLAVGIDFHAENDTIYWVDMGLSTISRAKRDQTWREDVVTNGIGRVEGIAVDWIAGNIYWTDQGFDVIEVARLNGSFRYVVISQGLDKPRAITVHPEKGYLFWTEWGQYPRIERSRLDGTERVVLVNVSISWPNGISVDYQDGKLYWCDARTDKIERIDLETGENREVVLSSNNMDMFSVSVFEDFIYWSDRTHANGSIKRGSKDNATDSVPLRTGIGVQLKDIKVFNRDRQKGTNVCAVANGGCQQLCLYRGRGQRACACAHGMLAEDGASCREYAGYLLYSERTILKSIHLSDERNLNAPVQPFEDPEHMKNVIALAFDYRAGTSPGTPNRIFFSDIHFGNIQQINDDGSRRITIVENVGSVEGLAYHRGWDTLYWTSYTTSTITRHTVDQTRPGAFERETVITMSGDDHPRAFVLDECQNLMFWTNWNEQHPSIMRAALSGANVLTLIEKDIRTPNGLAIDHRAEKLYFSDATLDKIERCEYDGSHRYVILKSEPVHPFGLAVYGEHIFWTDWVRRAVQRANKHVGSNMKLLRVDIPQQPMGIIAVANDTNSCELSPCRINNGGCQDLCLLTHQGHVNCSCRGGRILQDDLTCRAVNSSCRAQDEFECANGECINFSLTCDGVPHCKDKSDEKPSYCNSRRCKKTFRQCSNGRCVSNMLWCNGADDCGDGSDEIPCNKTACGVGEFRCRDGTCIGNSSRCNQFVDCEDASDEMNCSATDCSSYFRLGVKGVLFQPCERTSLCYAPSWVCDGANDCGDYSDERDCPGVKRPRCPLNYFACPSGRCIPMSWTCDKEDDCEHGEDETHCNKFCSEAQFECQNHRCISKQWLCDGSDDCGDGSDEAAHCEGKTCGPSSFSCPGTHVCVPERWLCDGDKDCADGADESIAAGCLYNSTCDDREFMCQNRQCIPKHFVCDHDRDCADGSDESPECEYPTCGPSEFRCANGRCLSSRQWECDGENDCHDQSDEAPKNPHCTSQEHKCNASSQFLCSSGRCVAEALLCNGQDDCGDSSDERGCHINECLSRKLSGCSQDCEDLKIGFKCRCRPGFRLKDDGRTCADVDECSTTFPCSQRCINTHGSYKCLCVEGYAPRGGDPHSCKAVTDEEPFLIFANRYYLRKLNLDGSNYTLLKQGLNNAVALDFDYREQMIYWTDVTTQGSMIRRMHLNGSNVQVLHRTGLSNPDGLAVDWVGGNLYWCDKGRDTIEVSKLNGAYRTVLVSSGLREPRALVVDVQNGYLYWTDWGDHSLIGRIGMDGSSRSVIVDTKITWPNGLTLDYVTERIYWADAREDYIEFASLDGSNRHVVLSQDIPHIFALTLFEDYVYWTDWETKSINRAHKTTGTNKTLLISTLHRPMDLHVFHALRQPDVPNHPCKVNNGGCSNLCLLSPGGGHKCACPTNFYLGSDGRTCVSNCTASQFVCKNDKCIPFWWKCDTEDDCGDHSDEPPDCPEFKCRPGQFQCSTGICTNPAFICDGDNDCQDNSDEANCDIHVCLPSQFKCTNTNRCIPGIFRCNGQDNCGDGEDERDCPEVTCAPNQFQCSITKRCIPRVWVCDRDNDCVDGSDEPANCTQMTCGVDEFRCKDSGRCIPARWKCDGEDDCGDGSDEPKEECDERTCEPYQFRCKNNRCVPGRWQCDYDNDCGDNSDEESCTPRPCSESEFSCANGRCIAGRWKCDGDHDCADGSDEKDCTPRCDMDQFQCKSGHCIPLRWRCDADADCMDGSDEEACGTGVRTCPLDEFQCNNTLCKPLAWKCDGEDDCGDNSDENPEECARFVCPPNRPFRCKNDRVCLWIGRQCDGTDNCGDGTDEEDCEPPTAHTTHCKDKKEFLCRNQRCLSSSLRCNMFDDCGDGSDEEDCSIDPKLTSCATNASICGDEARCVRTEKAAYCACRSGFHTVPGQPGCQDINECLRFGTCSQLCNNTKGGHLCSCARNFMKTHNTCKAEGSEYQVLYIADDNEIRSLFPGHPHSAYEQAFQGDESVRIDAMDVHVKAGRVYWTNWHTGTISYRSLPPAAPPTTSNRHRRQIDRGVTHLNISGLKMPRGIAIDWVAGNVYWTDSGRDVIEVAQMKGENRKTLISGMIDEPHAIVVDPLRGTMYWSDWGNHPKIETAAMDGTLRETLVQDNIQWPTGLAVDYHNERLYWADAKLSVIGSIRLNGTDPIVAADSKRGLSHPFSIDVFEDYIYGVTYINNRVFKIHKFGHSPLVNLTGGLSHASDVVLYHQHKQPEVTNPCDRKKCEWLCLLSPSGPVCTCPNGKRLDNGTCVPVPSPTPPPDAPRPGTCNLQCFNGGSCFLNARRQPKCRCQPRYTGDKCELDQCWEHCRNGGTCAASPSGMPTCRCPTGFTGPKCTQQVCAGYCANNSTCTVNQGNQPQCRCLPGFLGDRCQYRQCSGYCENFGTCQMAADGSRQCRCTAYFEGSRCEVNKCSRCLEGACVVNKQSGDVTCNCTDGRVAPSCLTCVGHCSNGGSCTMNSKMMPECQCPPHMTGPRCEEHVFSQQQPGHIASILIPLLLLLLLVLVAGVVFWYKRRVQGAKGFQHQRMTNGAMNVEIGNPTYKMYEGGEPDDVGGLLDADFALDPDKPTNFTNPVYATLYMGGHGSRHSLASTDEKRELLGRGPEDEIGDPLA
Chain of LRP1 ligand-binding cluster IV (human) (Q07954 20-4544): as above

Kd [1]: 3.8 nM
Molecule: MMP-13(E223A), activated form (from UniProt P45452 104-471) (enzyme)

Kd [1]: 5.1 nM
Molecule: proMMP-1-1-13(E200A) (MMP-1_(1-258)-MMP-13_(264-451)) (enzyme)

response (absorbance at 450 nm) ([2]; detection with anti-MMP-3 (4B7.3) antibody): 0.25
Molecule: proMMP-3 E202A

K D,app in the presence of 50 nM ADAMTS-5 [4]: 5.2 nM
K D,app in the presence of 50 nM TIMP-3 [4]: 8.2 nM
K D,app in the presence of 250 nM ADAMTS-4 [4]: 5.6 nM
Kd [5]: > 200 nM
Kd [6]: > 100 nM
Kd [7]: 17 nM
Kd [8]: 24 nM
Kd [1]: 6 nM
Molecule: proMMP-13(E223A) (from UniProt P45452 20-471) (enzyme)

The remaining lines, values behind:

Molecule: proMMP-1 E200A
response (absorbance at 450 nm) ([2]; detection with anti-MMP-1 (SB12e) antibody): 0.13
other: ProMMP-13 bound to LRP1 (% of amount bound without competitor) [3]: 100%

Molecule: proMMP-13(WT), MMP-13 with a FLAG tag between the signal and propeptide
clearance of 10 nM exogenous proMMP-13 from the medium of human chondrocytes, 0-4 h, Western blot; inhibited by 500 nM RAP and in LRP1-silenced cells [9]: 70 min

Molecule: proMMP-13(WT), MMP-13 with a FLAG tag between the signal and propeptide (enzyme)
proMMP-13 (10 nM) found in the cell lysate after 1 h with human chondrocytes at 4 °C (surface binding); abolished in the presence of 500 nM RAP [9]: 25%
Kd [1]: 5.9 nM

B1: hemopexin domain of MMP-13 (Hpx_(MMP-13)) (domain or fragment, human, UniProt P45452 284-471, looked up)
chain: CDPSLSLDAITSLRGETMIFKDRFFWRLHPQQVDAELFLTKSFWPELPNRIDAAYEHPSHDLIFIFRGRKFWALNGYDILEGYPKKISELGLPKEVKKISAAVHFEDTGKTLLFSGNQVWRYDDTNHIMDKDYPRLIEEDFPGIGDKVDAVYEKNGYIYFFNGPIQFEYSIWSNRIVRVMPANSILWC
notes: MMP-13 (collagenase 3), human, hemopexin domain released by autolysis; also called Hpx domain of MMP-13; source: from proMMP-13 incubated with 1 mM APMA at 37 °C for at least 16 h
Kd [5]: > 200 nM
Kd [6]: > 50 nM
Kd ([7]; both partners purified): 15 nM
Kd ([8]; both partners purified): 13 nM
Kd [1]: 2.7 nM
